Measurements taken from US20240228596A1 (VIB VZW, published 2024).
Where a chain is given by its changes, count along the chain named.

Experiments:
[1] = target: T1, SARS-COV-2 Wuhan WT Spike_del18 on VSV-delG pseudotyped particles (SARS-COV-2, UniProt P0DTC2 14-1255); assay: cell-based or functional assay
[2] = target: T1, SARS-COV-2 Wuhan WT Spike_del18 on …; assay: cell-based or functional assay; remark: listed apart in the source
[3] = target: SARS-COV-1 spike protein on VSV-delG pseudotyped particles (SARS-COV-1, UniProt P59594 14-1255); assay: cell-based or functional assay
[4] = target: T2, RBD of HKU3 sarbecovirus displayed on yeast cells (HKU3 sarbecovirus, UniProt Q3LZX1 322-504); assay: flow cytometry, yeast-displayed RBD (data not shown)
[5] = target: T1, SARS-COV-2 Wuhan WT Spike_del18 on …; assay: cell-based or functional assay; remark: listed apart in the source
[6] = target: T2, RBD of HKU3 sarbecovirus displayed on …; assay: flow cytometry, yeast-displayed RBD
[7] = target: T3, RBD of SARS-COV-1 displayed on yeast cells (SARS-COV-1, UniProt P59594 318-517); assay: flow cytometry, yeast-displayed RBD (data not shown)
[8] = target: RBD of Rp3 sarbecovirus displayed on yeast cells (Rp3 sarbecovirus, UniProt Q3I5J5 322-503); assay: as above
[9] = target: T3, RBD of SARS-COV-1 displayed on yeast …; assay: flow cytometry, yeast-displayed RBD
SARS-COV-2 RBD-SD1 = SARS-COV-2 RBD-SD1 (SARS-COV-2, UniProt P0DTC2 319-591); assay: periplasmic extract ELISA

B1: VHH3.42 (VHH)
VHH: QVQLQESGGGLVQPGGSLRLSCAASGSAVSINDMGWYRQPPGKQRELVATITKTGSTNYADSVKGRFTISRDNAKNAVYLEMNSLKPEDTATYYCNAWLPYGMGPDYYGMELWGKGTQVTVSS
With B1 as the binder, how does the “neutralization IC50” value [1] read?
The value was 54.8 nM.

And the “IC50 Mean VSV-dG-spike SARS-COV-2” value [2]?
The value was 0.8 µg/mL.

What about the “IC50 Mean VSV-dG-spike SARS-COV-1” value [3] of the same binder?
The value was 0.19 µg/mL.

Does B1 bind [4]?
Result: binds

B2: VHH3.117 (VHH)
VHH: B1 VHH with S27K, N32S, V63A, K64Q, A74T, N76S, N83K, T92V
What does the source list for B2?
neutralization IC50 [1]: 13.7 nM; IC50 Mean VSV-dG-spike SARS-COV-2 [2]: 0.2 µg/mL; IC50 Mean VSV-dG-spike SARS-COV-1 [3]: 0.016 µg/mL; IC50 ug/ml, pseudoneutralization assay [5]: 0.539 µg/mL; binding result [6]: binds

B3: VHH3.92 (VHH)
VHH: B1 VHH with S27K, N32S, S56N, V63A, K64Q, N76S, N83A, T92V
With B3 as the binder, how does the “neutralization IC50” value [1] read?
The value was 13.6 nM.

What about the “IC50 Mean VSV-dG-spike SARS-COV-2” value [2] of the same binder?
Its value is 0.21 µg/mL.

Does B3 bind [4]?
Result: binds

B4: VHH3.83 (VHH)
VHH: QVQLQESGGGLVQPGDSLRLSCVLSGGVFTSYAMGWFRQAPGKEREFLAAITFNSDATYYADSVKGRFTISRDNAKNTAYLQMNSLKPNDTAVYSCAAGGNHYNPQYYHDYDKYDHWGQGTQVTVSS
How did the “IC50 ug/ml, pseudoneutralization assay” value [5] turn out when B4 was run?
The value was 0.262 µg/mL.

Does B4 bind [7]?
Result: binds

Does B4 bind [8]?
Result: binds

Does B4 bind [4]?
Result: binds

B5: VHH3.89 (VHH)
VHH: QVQLQESGGGLVQPGGSLRLSCAASGFTLDYYAIGWFREVPGKEREGLSRIDSSDGSTYYADSVKGRFTISRDNTKNIVYLQMNNLKPEDTAVYYCATDPIIQGRNWYWTGWGQGTQVTVSS
Does B5 bind [9]?
Result: binds

Does B5 bind [6]?
Result: binds

B6: VHH4.2XAS43 (VHH)
VHH: B4 VHH with P14A, R19T, V23A, L24A, G27R, V28T, F29G, T30S, S31N, N89D
Does B6 bind (SARS-COV-2 RBD-SD1)?
Result: binds

B7: VHH4.1XAS51 (VHH)
VHH: QVQLQESGGGLVQAGGSLRLSCTASTPTIKNYAMGWFRQAPGKEREFLAAITFNSDATYYADSVKGRFTISRDNAKNTAYLQMNSLKPDDTAVYSCAAGGNHYNPQYYHDYDKYDYWGQGTQVTVSS
Does B7 bind (SARS-COV-2 RBD-SD1)?
Result: binds

B8: VHH4.2XAS31 (VHH)
VHH: QVQLQESGGGFVQAGGSLRLSCATSGHRFSDYAVAWFRQTPGKEREFLAAITFNSDATYYADSVKGRFTISRDNAKNTAYLQMNSLKPDDTAVYSCAAGGNHYNPQYYHDYDKYDHWGQGTQVTVSS
Does B8 bind (SARS-COV-2 RBD-SD1)?
Result: binds

B9: VHH4.2XAS58 (VHH)
VHH: QVQLQESGGGLVQSGGSLRLSCAGSGFPLEAFSIGWFRQAPGKEREFLAAITFNSDATYYADSVKGRFTISRDNAKNTAYLQMNSLKPDDTAVYSCAAGGNHYNPQYYHDYDKYDHWGQGTQVTVFS
Does B9 bind (SARS-COV-2 RBD-SD1)?
Result: binds
